Reference: patent US20160159919A1 (Chugai, published 2016)

T1: hsEREG-His (mature human EREG-6His fusion protein) (human, UniProt O14944 30-108)
T1 sequence: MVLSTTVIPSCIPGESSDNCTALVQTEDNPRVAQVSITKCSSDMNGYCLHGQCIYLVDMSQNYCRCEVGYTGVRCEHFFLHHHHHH


Assays:
[1] = target: T2, cynomolgus EREG (Biacore analyte) (cynomolgus monkey, UniProt O14944 63-108 (human entry), limits assumed); assay: SPR (Biacore T100), antibody captured on Protein A, EREG as analyte, single-cycle kinetics
T2 construct: also called cynomolgus monkey EREG; cEREG
Description: (§1) The affinity and association rate constant of an anti-EREG antibody for an antigen were measured by the single-cycle kinetics method of surface plasmon resonance assay using Biacore™-T100 (GE Healthcare Japan). HBS-EP+ (GE Healthcare Japan) was used for the running buffer, and an amine coupling kit (GE Healthcare Japan) was used to covalently bond Protein A to the CM5 chip (carboxymethyl dextran-coated chip). Each anti-EREG antibody was prepared so that approximately 350 RU will be captured by Protein A. Human EREG or cynomolgus EREG used as the analyte was prepared at 0, 0.7, 1.4, 2.8, 5.6, and 11.2 nM using HBS-EP+. Measurement was carried out by first allowing Protein A to capture the antibody solution, and then at a flow rate of 30 μL/min, successively injecting each of the 0, 0.7, 1.4, 2.8, 5.6, and 11.2 nM human EREG or cynomolgus EREG solutions for three minutes to allow reaction to take place. Then, the solution was switched to HBS-EP+, and the dissociation phase was measured for 15 minutes. After completion of the dissociation phase measurement, the sensor chip was washed with 25 mM NaOH and regenerated. The measurement at zero concentration was similarly carried out by allowing Protein A to capture the antibody solution, and performing three-minute HBS-EP+ injections successively for five times to allow reaction to take place, and then switching to HBS-EP+ to measure the dissociation phase for 15 minutes. After completion of the dissociation phase measurement, the sensor chip was washed with 25 mM NaOH and regenerated. A data analysis software exclusively for Biacore, Biacore T100 Evaluation Software Version 2.0.1, was used to perform kinetic analyses to calculate the association rate constant (kₐ), dissociation rate constant (kd), and the rate constant ratio from the obtained sensorgrams. To correct for the day-to-day differences in the measurement values, FIGS. 1 to 4 and Tables 16 and 19 show ratios based on taking the value of the control sample (cH-G1/cL-k) measured on the same day as 1.

[2] = target: T3, Human EREG (Biacore analyte) (human, UniProt O14944 63-108); assay: as above
T3 construct: also called hEREG; human epiregulin
Description: as §1

[3] = target: T2, cynomolgus EREG (Biacore analyte); assay: SPR (Biacore T100), antibody captured on Protein A, EREG as analyte; KD for monkey EREG over KD for human EREG
Description: as §1

[4] = target: T2, cynomolgus EREG (Biacore analyte); assay: SPR (Biacore T100); KD for monkey EREG over KD for human EREG
Description: as §1

[5] = target: T1, hsEREG-His (mature human EREG-6His …); assay: cell-based or functional assay

T2 sequence (O14944 other isoform, or with tags, fused parts or gaps limits assumed): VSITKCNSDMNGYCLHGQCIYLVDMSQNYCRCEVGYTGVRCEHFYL

Kd [1] [nM]	koff [1] [s⁻¹]	kon [1] [M⁻¹ s⁻¹]	Kd [2] [nM]	koff [2] [s⁻¹]	kon [2] [M⁻¹ s⁻¹]	cEREG KD (nM)/hEREG KD (nM) [3] [ratio]	cEREG (nM)/hEREG (nM) [4] [ratio]	IC50 (read off the curve), growth ratio of EGFR_BAF cells with hsEREG-His 2.5 ng/mL [5] [µg/mL]	Binder
5.2	0.0045	860000	0.15	0.0002	1.3e+06	35.1	35.1	–	H87-G1d/LB-k (antibody, human IgG1, kappa, V domains shown) VH: QDQLVQSGAEVKKPGASVKVSCKASGFNIKDTYIQWVRQAPGQGLEWMGRIDPLTGQTKYQEKFEGRVTITADTSTNTAYMELSSLRSEDTAVYYCVRSGTSFDFWGQGTLVTVSS VL: DIQMTQSPSSLSASVGDRVTITCKASQDIHKYIAWYQQKPGQAPRLLIQYTSTLQPGVPSRFSGSGSGTDYTFTISSLQPEDIATYYCLQYDNLRTFGGGTKVEIKR
0.45	0.00023	500000	0.13	7.4e-05	550000	–	3.4	~0.8	H206-G1d/L73-k (antibody, human IgG1, kappa, V domains shown) VH: QDQLVQSGAEVKNPGASVKVSCKASGFNIKDTYIQWVRQAPGQGLEWMGRIDPLRRQTKYREKFEGRVTITADTSTNTAYMELSSLRSEDTAVYYCVRSGREFDFWGQGTLVTVSS VL: DIQMTQSPSSLSASVGDRVTITCRASQDIHKYIAWYQQKPGQAPRLLIQYTSTLQPGVPSRFSGSGSGTDYTFTISSLQPEDIATYYCLQYEQLRTFGGGTKVEIKR
1.5	0.00089	610000	0.27	0.00011	420000	–	5.4	~0.4	H240-G1d/L53-k (antibody, human IgG1, kappa, V domains shown) VH: QDQLVQSGAEVKKPGASVKVSCKASGFNIKDTYIQWVRQAPGQGLEWMGRIDPLRKQTKYREKFEGRVTITADTSTNTAYMELSSLRSEDTAVYYCVRSGREFDYWGQGTLVTVSS VL: DIQMTQSPSSLSASVGDRVTITCRASQDIHKYIAWYQQKPGQAPRLLIQYTSTLQPGVPSRFSGSGSGTDYTFTISSLQPEDIATYYCLQYDNLRTFGGGTKVEIKR
0.87	0.00029	340000	0.22	7.7e-05	340000	–	3.6	~0.5	H240-G1d/L73-k (antibody, human IgG1, kappa, V domains shown) VH: QDQLVQSGAEVKKPGASVKVSCKASGFNIKDTYIQWVRQAPGQGLEWMGRIDPLRKQTKYREKFEGRVTITADTSTNTAYMELSSLRSEDTAVYYCVRSGREFDYWGQGTLVTVSS VL: DIQMTQSPSSLSASVGDRVTITCRASQDIHKYIAWYQQKPGQAPRLLIQYTSTLQPGVPSRFSGSGSGTDYTFTISSLQPEDIATYYCLQYEQLRTFGGGTKVEIKR
–	–	–	–	–	–	4.7	–	–	H131-G1d/LB-k (antibody, human IgG1, kappa, V domains shown) VH: QDQLVQSGAEVKKPGASVKVSCKASGFNIKDTYIQWVRQAPGQGLEWMGRIDPLRRNTKYREKFEGRVTITADTSTNTAYMELSSLRSEDTAVYYCVRSRTLFDFWGQGTLVTVSS VL: DIQMTQSPSSLSASVGDRVTITCKASQDIHKYIAWYQQKPGQAPRLLIQYTSTLQPGVPSRFSGSGSGTDYTFTISSLQPEDIATYYCLQYDNLRTFGGGTKVEIKR
–	–	–	–	–	–	4.6	–	–	H132-G1d/LB-k (antibody, human IgG1, kappa, V domains shown) VH: QDQLVQSGAEVKKPGASVKVSCKASGFNIKDTYIQWVRQAPGQGLEWMGRIDPLRRNTKYREKFEGRVTITADTSTNTAYMELSSLRSEDTAVYYCVRSGRLFDFWGQGTLVTVSS VL: DIQMTQSPSSLSASVGDRVTITCKASQDIHKYIAWYQQKPGQAPRLLIQYTSTLQPGVPSRFSGSGSGTDYTFTISSLQPEDIATYYCLQYDNLRTFGGGTKVEIKR
–	–	–	–	–	–	8.3	–	–	H121-G1d/LB-k (antibody, human IgG1, kappa, V domains shown) VH: QDQLVQSGAEVKKPGASVKVSCKASGFNIKDTYIQWVRQAPGQGLEWMGRIDPLRGNTKYRERFEGRVTITADTSTNTAYMELSSLRSEDTAVYYCVRSGTLFDFWGQGTLVTVSS VL: DIQMTQSPSSLSASVGDRVTITCKASQDIHKYIAWYQQKPGQAPRLLIQYTSTLQPGVPSRFSGSGSGTDYTFTISSLQPEDIATYYCLQYDNLRTFGGGTKVEIKR
0.94	0.00061	640000	0.17	0.00011	660000	–	5.2	–	H206-G1d/L53-k (antibody, human IgG1, kappa, V domains shown) VH: QDQLVQSGAEVKNPGASVKVSCKASGFNIKDTYIQWVRQAPGQGLEWMGRIDPLRRQTKYREKFEGRVTITADTSTNTAYMELSSLRSEDTAVYYCVRSGREFDFWGQGTLVTVSS VL: DIQMTQSPSSLSASVGDRVTITCRASQDIHKYIAWYQQKPGQAPRLLIQYTSTLQPGVPSRFSGSGSGTDYTFTISSLQPEDIATYYCLQYDNLRTFGGGTKVEIKR
–	–	–	–	–	–	8.2	–	–	H123-G1d/LB-k (antibody, human IgG1, kappa, V domains shown) VH: QDQLVQSGAEVKKPGASVKVSCKASGFNIKDTYIQWVRQAPGQGLEWMGRIDPLRGNTKYREKFERRVTITADTSTNTAYMELSSLRSEDTAVYYCVRSGTLFDFWGQGTLVTVSS VL: DIQMTQSPSSLSASVGDRVTITCKASQDIHKYIAWYQQKPGQAPRLLIQYTSTLQPGVPSRFSGSGSGTDYTFTISSLQPEDIATYYCLQYDNLRTFGGGTKVEIKR
–	–	–	–	–	–	6.1	–	–	H133-G1d/LB-k (antibody, human IgG1, kappa, V domains shown) VH: QDQLVQSGAEVKKPGASVKVSCKASGFNIKDTYIQWVRQAPGQGLEWMGRIDPLRRNTKYREKFEGRVTITADTSTNTAYMELSSLRSEDTAVYYCVRSGTRFDFWGQGTLVTVSS VL: DIQMTQSPSSLSASVGDRVTITCKASQDIHKYIAWYQQKPGQAPRLLIQYTSTLQPGVPSRFSGSGSGTDYTFTISSLQPEDIATYYCLQYDNLRTFGGGTKVEIKR
0.66	0.00028	420000	0.14	8.7e-05	620000	–	3.5	–	H231-G1d/L73-k (antibody, human IgG1, kappa) heavy: not shown light: DIQMTQSPSSLSASVGDRVTITCRASQDIHKYIAWYQQKPGQAPRLLIQYTSTLQPGVPSRFSGSGSGTDYTFTISSLQPEDIATYYCLQYEQLRTFGGGTKVEIKRTVAAPSVFIFPPSDEQLKSGTASVVCLLNNFYPREAKVQWKVDNALQSGNSQESVTEQDSKDSTYSLSSTLTLSKADYEKHKVYACEVTHQGLSSPVTKSFNRGEC
0.69	0.00026	370000	0.19	7.5e-05	390000	–	3.1	–	H205-G1d/L73-k (antibody, human IgG1, kappa) heavy: not shown light: DIQMTQSPSSLSASVGDRVTITCRASQDIHKYIAWYQQKPGQAPRLLIQYTSTLQPGVPSRFSGSGSGTDYTFTISSLQPEDIATYYCLQYEQLRTFGGGTKVEIKRTVAAPSVFIFPPSDEQLKSGTASVVCLLNNFYPREAKVQWKVDNALQSGNSQESVTEQDSKDSTYSLSSTLTLSKADYEKHKVYACEVTHQGLSSPVTKSFNRGEC
–	–	–	–	–	–	9.1	–	–	H120-G1d/LB-k (antibody, human IgG1, kappa, V domains shown) VH: QDQLVQSGAEVKKPGASVKVSCKASGFNIKDTYIQWVRQAPGQGLEWMGRIDPLRGNTKRREKFEGRVTITADTSTNTAYMELSSLRSEDTAVYYCVRSGTLFDFWGQGTLVTVSS VL: DIQMTQSPSSLSASVGDRVTITCKASQDIHKYIAWYQQKPGQAPRLLIQYTSTLQPGVPSRFSGSGSGTDYTFTISSLQPEDIATYYCLQYDNLRTFGGGTKVEIKR
–	–	–	–	–	–	20.6	–	–	H124-G1d/LB-k (antibody, human IgG1, kappa, V domains shown) VH: QDQLVQSGAEVKKPGASVKVSCKASGFNIKDTRIQWVRQAPGQGLEWMGRIDPLRGNTKYREKFEGRVTITADTSTNTAYMELSSLRSEDTAVYYCVRSGTLFDFWGQGTLVTVSS VL: DIQMTQSPSSLSASVGDRVTITCKASQDIHKYIAWYQQKPGQAPRLLIQYTSTLQPGVPSRFSGSGSGTDYTFTISSLQPEDIATYYCLQYDNLRTFGGGTKVEIKR
